Results published in patent US20080019991A1 (CYTOS BIOTECHNOLOGY, published 2008).

Target: T1, recombinant human RANK-hFc fusion protein (human, UniProt Q9Y6Q6 30-212, limits assumed)
T1 construct: also called hRANK; not shown: human Fc (hFc)
T1 sequence (looked up): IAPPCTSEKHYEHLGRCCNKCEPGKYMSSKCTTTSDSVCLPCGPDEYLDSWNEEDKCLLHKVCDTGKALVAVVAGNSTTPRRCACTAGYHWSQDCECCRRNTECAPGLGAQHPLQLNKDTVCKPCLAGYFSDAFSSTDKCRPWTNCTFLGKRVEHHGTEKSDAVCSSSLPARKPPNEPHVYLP
Assay: ELISA, human RANKL coated at 10 µg/ml, anti-hFc-HRP detection
Protocol: To test whether the antibodies generated in mice have neutralizing activity, in vitro binding assays for both mouse and human RANKL and their cognate receptors mouse RANK and human RANK were established. ELISA plates were therefore coated with 10 μg/ml of either mouse or human RANKL protein and incubated with serial dilutions of a recombinant mouse RANK-hFc fusion protein or a recombinant human RANK-hFc fusion protein, respectively. Bound protein was detected with a horse raddish peroxidase conjugated anti-hFc antibody. […] ELISA plates were therefore coated with either mouse or human RANKL protein at a concentration of 10 μg/ml, and co-incubated with serial dilutions of a pool of mouse sera from day 35 and 0.35 nM mouse or human RANK-hFc fusion protein, respectively. Binding of receptor to immobilized RANKL protein was detected with horse raddish peroxidase conjugated anti-hFc antibody.

binding result: binds
B1: human RANKL protein (ligand, UniProt O14788 140-317, looked up)
chain: IRAEKAMVDGSWLDLAKRSKLEAQPFAHLTINATDIPSGSHKVSLSSWYHDRGWAKISNMTFSNGKLIVNQDGFYYLYANICFRHHETSGDLATEYLQLMVYVTKTSIKIPSSHTLMKGGSTKYWSGNSEFHFYSINVGGFFKLRSGEEISIEVSNPSLLDPDQDATYFGAFKVRDID
notes: Coated on ELISA plates; also called hRANKL
